Results on 8 proteins are retold here after article PMC3289678.

The nature of data set [1]: DiFMUP assay with 70 mM L-(+)-tartrate. The settings on record: glycan lost; control: wild-type r-hPAP.
A short description of data set [2]: DiFMUP phosphatase assay, crude cell lysates. Conditions: glycan lost; control: wild-type r-hPAP.
Data set [3] in a line: DiFMUP phosphatase assay, crude secreted fractions. Conditions: glycan lost; control: wild-type r-hPAP.
Data set [4] in a line: anti-hPAP western blot, lysates and secreted fractions. Conditions: glycan lost; control: wild-type r-hPAP.
Data set [5] can be described thus: DiFMUP phosphatase assay after 24 h PNGase F. Conditions: glycan lost; control: untreated r-hPAP.

B1: secretory human prostatic acid phosphatase (hPAP, S-PAP): N62Q (protein)
parent chain: MRAAPLLLARAASLSLGFLFLLFFWLDRSVLAKELKFVTLVFRHGDRSPIDTFPTDPIKESSWPQGFGQLTQLGMEQHYELGEYIRKRYRKFLNESYKHEQVYIRSTDVDRTLMSAMTNLAALFPPEGVSIWNPILLWQPIPVHTVPLSEDQLLYLPFRNCPRFQELESETLKSEEFQKRLHPYKDFIATLGKLSGLHGQDLFGIWSKVYDPLYCESVHNFTLPSWATEDTMTKLRELSELSLLSLYGIHKQKEKSRLQGGVLVNEILNHMKRATQIPSYKKLIMYSAHDTTVSGLQMALDVYNGLLPPYASCHLTELYFEKGEYFVEMYYRNETQHEPYPLMLPGCSPSCPLERFAELVGPVIPQDWSTECMTTNSHQGTEDSTD
Regarding B1, in data set [1], the “other: inhibition by L-(+)-tartrate” value is “no change”. The “enzymatic_activity, other: RFU/µg total protein at 10 min” value is given as “decreases, 7.8 (0.29) vs 12.2 (0.28)” in data set [2] and “decreases, 67.0 (2.78) vs 109.5 (1.44)” in data set [3]. Further, the expression_or_secretion result in data set [4] is “no change”.

B2: secretory human prostatic acid phosphatase (hPAP, S-PAP): N188Q (protein)
parent chain: B1 parent chain
In the case of B2, the “other: inhibition by L-(+)-tartrate” value in data set [1] was “no change”. In data set [4], the expression_or_secretion entry was “decreases”.

B3: secretory human prostatic acid phosphatase (hPAP, S-PAP): N62Q, N188Q, N301Q (protein)
parent chain: B1 parent chain
Consider B3, for which the expression_or_secretion result in data set [4] was “abolishes”.

B4: secretory human prostatic acid phosphatase (hPAP, S-PAP): N301Q (protein)
parent chain: B1 parent chain
With B4, the expression_or_secretion result in data set [4] is “abolishes”.

B5: secretory human prostatic acid phosphatase (hPAP, S-PAP): N188Q, N301Q (protein)
parent chain: B1 parent chain
Consider B5, for which the expression_or_secretion result in data set [4] is given as “abolishes”.

B6: secretory human prostatic acid phosphatase (hPAP, S-PAP): N62Q, N301Q (protein)
parent chain: B1 parent chain
On to B6, for which the expression_or_secretion result in data set [4] is given as “abolishes”.

B7: secretory human prostatic acid phosphatase (hPAP, S-PAP): PNGase F (protein)
parent chain: B1 parent chain
Consider B7, for which, in data set [5], the enzymatic_activity result is recorded as “no change”.

B8: secretory human prostatic acid phosphatase (hPAP, S-PAP): N62Q, N188Q (protein)
parent chain: B1 parent chain
On to B8, for which, in data set [1], the “other: inhibition by L-(+)-tartrate” value is listed as “no change”. Further, in data set [4], the expression_or_secretion entry is given as “decreases”.
